{"source": "patent US20250295803A1", "about": "“5T4 ANTIBODY-DRUG CONJUGATES AND USES THEREOF” (EXELIXIS, INC., priority 2022, published 2025)", "binders": {"B1": {"name": "mAbA4 (antibody, V domains shown)", "VH": "EVQLVESGGGLVQPGGSLRLSCAASGFTFSRYYIHWVRQAPGKGLEWVAFISPGGSYTYYADSVKGRFTISADTSKNTAYLQMNSLRAEDTAVYYCAREYYSMGVLDYWGQGTLVTVSS", "VL": "DIQMTQSPSSLSASVGDRVTITCRASQSVSSAVAWYQQKPGKAPKLLIYSASSLYSGVPSRFSGSRSGTDFTLTISSLQPEDFATYYCQQAYESPYTFGQGTKVEIKR", "notes": "also called Antibody mAbA4"}}, "target": "T1, mouse 5T4 on transfected HEK293 and CHO cells (mouse, UniProt Q9Z0L0 32-426)", "T1 sequence": "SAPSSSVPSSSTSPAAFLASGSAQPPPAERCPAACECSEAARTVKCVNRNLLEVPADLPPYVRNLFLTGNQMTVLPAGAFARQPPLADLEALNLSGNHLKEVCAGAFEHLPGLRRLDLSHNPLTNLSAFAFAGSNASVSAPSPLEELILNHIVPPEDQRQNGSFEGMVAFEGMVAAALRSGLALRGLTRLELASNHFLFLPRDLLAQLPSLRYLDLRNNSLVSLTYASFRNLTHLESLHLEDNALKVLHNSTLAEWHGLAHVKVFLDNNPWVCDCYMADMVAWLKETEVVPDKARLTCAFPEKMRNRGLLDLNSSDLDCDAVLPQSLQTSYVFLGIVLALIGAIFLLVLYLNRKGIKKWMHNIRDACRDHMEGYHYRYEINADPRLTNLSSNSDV", "experiment": "cell binding on transfected HEK293 and CHO cells", "data": [{"binder": "B1", "values": [{"measurement": "binding result", "result": "no binding"}]}]}
